# Test results published in the DeepSol protein solubility set.
# Assay: soluble on expression in E. coli; label from the status in PepcDB or PDB records
row,Sequence,soluble on expression in E. coli
1,MSVDMNSQGSDSNEEDYDPNCEEEEEEEEDDPGDIEDYYVGVASDVEQQGADAFDPEEYQFTCLTYKESEGALNEHMTSLASVLKVSHSVAKLILVNFHWQVSEILDRYKSNSAQLLVEARVQPNPSKHVPTSHPPHHCAVCMQFVRKENLLSLACQHQFCRSCWEQHCSVLVKDGVGVGVSCMAQDCPLRTPEDFVFPLLPNEELREKYRRYLFRDYVESHYQLQLCPGADCPMVIRVQEPRARRVQCNRCNEVFCFKCRQMYHAPTDCATIRKWLTKCADDSETANYISAHTKDCPKCNICIEKNGGCNHMQCSKCKHDFCWMCLGDWKTHGSEYYECSRYKENPDIVNQSQQAQAREALKKYLFYFERWENHNKSLQLEAQTYQRIHEKIQERVMNNLGTWIDWQYLQNAAKLLAKCRYTLQYTYPYAYYMESGPRKKLFEYQQAQLEAEIENLSWKVERADSYDRGDLENQMHIAEQRRRTLLKDFHDT,soluble
2,MSVHPAVQSLCEQPIDTIGLTAVSAVASALGDVSTATDLIQRPEQEKALHDLLKKCMSILNNSGKNSALRLACLECLYVLSQPPIPAFRTGLLCNTLNSVNSSVEEMLARTGPSEAESSSSAREMFTVLVFRFTNYDTKVARLLLQHMCDGDVGTMMQTLLRVMVQHCETCEWPLLQAALQSLYELTVPTTYYATGKDGAAEPSFDSAATATGSSLQSFTVESFQDRIAVLLTEMRNHRLLEKLLASLRLSWHESTHNRSPPSLAQGCAESVALGALGCPDVAHTVTSASAEQQMELLNWLSAFTLLCRALDNMVEFCRDAKLAREVRARLLSDPSCHDWLASAAVPAVIAAIQVWMSDDGASATPAAISDGSAGPFATAKVKLSLLTAAVTLLRLLRFALYKPAMGFTAALLSSMGCLAAQVQRGEPHLRLQYGGMQVMLLTVECLVNMNAVAVTSPVNLSESYRGLLRTIAADKTRCTLSNCSSDVSSDHGAVAERQPDALMPVAEWFILCVREEESPFCDIDSGNASVALLHECFASEEARLQDAADRVADLAALESQLAMMQNFLLLMTLTELLSGLPDGGLERLTQPGPRRRNSATDAEQKPPNNSDSSSRRCKLSKKKVSHHPAAYVCDLTGKLMREPVVLKGGHRFEFDALQNVILQVGHVDPISGESIDEDVEVNIPLQQEIAAYRVKRASEKGGS,not soluble
3,MSVLGFDIGNLNCYIGVARQGGIEVITNDYSLHATPACVSFGPKDRSMGVAARQAVTTNIKNTVINFKHLIGRKFSDPVAQRFIPFIPCKVVKLPNDDIGVQVSYLGEPHTFTPEQVLAALLTKLRTIVESQLSDVKKVSDCVLAVPSYFTDVQRRAVLSAIQYAGLNSLRIVNETTAIALAYGIYKQDLPEEDAKSRNVVFLDIGHSSTQASLVAFNRGKLQMVNTSYDLESGGIWFDALIREHFRKEFKTKYGIDAATSPRPWLRLLDECERVKKQMSANQTPIPLNIECFMEDKDVTGKMQRQEFEDLAAPIFNRIKQVLINLFADGVSIKPEEIDEIEIVGGSSRIPMIREIVKDLFGKEPKTTMNQDEAVARGAAMQCAILSPTFRVREFAIKDTQPYRIRLSWNSTGENGGENDVFSPRDEVPFSKLVSLLRSGPFNVEAHYAQPNVVPHNQVHIGSWKVNGARPGADGGNQKVKVKVRVNPDGIFTIASATMYEPRIVEEVPAEAMEVDGDAKTEAPAEPLEPVKKTKLVPVDLEVIESIPVSYDVQKFHNLELQMQESDAREKAKADAKNSLEEYVYEMRDKVSDQYAEFITPAAADEFRSVLTSTEDWLYDEGEDAERDVYEKRLSELKAVGTPVVERYRESETRKPAFDSFDQSIMRVRKAYEDYANGGPTYAHLDSKEMEKVINAIEDKKKWLDEARHKQETRSKTDAPVVFTEEILQNKNVFENVVNPILNKKKPAAPAPPKKEEPQPAAGDQPQSQPGEMDVD,not soluble
